Holding throughout (format): biochemical, Metallosphaera sedula
Substrate in the series “purified protein”: O=CCCC(=O)O
Description: purified protein. As to conditions: NADPH 0.5 mM, MgCl2 5 mM, DTT 5 mM, pH 6.5, 65°C.

Substrate in series [1]: CC(C)(COP(=O)(O)OP(=O)(O)OC[C@H]1O[C@@H](n2cnc3c(N)ncnc32)[C@H](O)[C@@H]1OP(=O)(O)O)[C@@H](O)C(=O)NCCC(=O)NCCSC(=O)CCC(=O)O
Description: NADPH consumption, spectrophotometric. The following applies: NADPH 0.5 mM, MgCl2 5 mM, DTT 4 mM, pH 6.5, 65°C.

Substrate in series [2]: NC(=O)C1=CN([C@@H]2O[C@H](COP(=O)(O)OP(=O)(O)OC[C@H]3O[C@@H](n4cnc5c(N)ncnc54)[C@H](OP(=O)(O)O)[C@@H]3O)[C@@H](O)[C@H]2O)C=CC1
Description: NADPH consumption, spectrophotometric. As to conditions: succinyl-CoA as substrate, pH 6.5, 65°C, varied: cofactor.

B1: SSR, succinic semialdehyde reductase (Metallosphaera sedula DSM 5348) (protein)
chain: MKAAVLHTYKEPLSIEDVNISQPKAGEVKIKVKATGLCHSDVNVFEGKTPVPPPVVAGHEISGIVEEVGPGVTRVKPGDRVISAFIHPCGKCGNCVAGKENLCETFSQVRLKGVMPDGTSRLSKDGKEIRTFLGGGFAEYAIVGENALTRVPEDMDLEKVAVLGCAGLTGYGAISSSKIEPGDTVAVIGVGGVGLSTIQLLRASGAGRIIAVGTKKWKLDRAMELGATDVVNSKEIDPVKAIKEITGGGPQVVIEAGGNEDTIHMALDSVRIGGKVVLVGLPPATAMIPIRVASIVRGGIEVVGNYGGRPRVDMPKLLELVRQGRYDPSRLVTGRFRLEEINEAVKMLEEGEAIRSLIIP
Consider B1, for which, in “purified protein”, the Km stood at 27 µM, the Vmax was 683 µmol/min/mg and the kcat/Km was 1.6e+07 M⁻¹ s⁻¹.

B2: MCR, malonyl-CoA/succinyl-CoA reductase (Metallosphaera sedula DSM 5348) (protein)
chain: MRRTLKAAILGATGLVGIEYVRMLADHPYIKPTYLAGKGSVGKPYGEIVRWQTVGNVPKEVANQEVKPTDPKLMDDVDIIFSPLPQGAAGPVEEQFAKLGFNVISNSPDHRFDMDVPMIIPEVNPHTVTLIDEQRKRRDWKGFIVTTPLCTAQGAAIPLTPIYQNFKMSGVMITTMQSLSGAGYPGIASLDIVDNALPLGDGYDAKTVKEITRILSEVKRNVQEPGVNEITLDATTHRIATIHGHYEVAYVTFKEDTDVRKVMESMESFKGEPQDLKLPTAPEKPIIVTTQDARPQVFFDRWAGNPPGMSVVVGRLKQVNPRTIRFVSLIHNTVRGAAGGGVLTAELLVEKGYIDKR
For B2, in series [1], the Km was determined as 191 µM, the Vmax worked out at 15.9 µmol/min/mg and the kcat/Km was found to be 54500 M⁻¹ s⁻¹. In series [2], the Km is 79.2 µM, the maximum rate (Vmax) stood at 13.1 µmol/min/mg and the kcat/Km came out at 109000 M⁻¹ s⁻¹.
